The record followed here is PMC7483370 (Molecular cell, 2020).

The target in test [1] is T1, Androgen receptor, full-length, flag-tagged, recombinant (baculovirus) (human, UniProt P10275 1-920).
T1 sequence (looked up): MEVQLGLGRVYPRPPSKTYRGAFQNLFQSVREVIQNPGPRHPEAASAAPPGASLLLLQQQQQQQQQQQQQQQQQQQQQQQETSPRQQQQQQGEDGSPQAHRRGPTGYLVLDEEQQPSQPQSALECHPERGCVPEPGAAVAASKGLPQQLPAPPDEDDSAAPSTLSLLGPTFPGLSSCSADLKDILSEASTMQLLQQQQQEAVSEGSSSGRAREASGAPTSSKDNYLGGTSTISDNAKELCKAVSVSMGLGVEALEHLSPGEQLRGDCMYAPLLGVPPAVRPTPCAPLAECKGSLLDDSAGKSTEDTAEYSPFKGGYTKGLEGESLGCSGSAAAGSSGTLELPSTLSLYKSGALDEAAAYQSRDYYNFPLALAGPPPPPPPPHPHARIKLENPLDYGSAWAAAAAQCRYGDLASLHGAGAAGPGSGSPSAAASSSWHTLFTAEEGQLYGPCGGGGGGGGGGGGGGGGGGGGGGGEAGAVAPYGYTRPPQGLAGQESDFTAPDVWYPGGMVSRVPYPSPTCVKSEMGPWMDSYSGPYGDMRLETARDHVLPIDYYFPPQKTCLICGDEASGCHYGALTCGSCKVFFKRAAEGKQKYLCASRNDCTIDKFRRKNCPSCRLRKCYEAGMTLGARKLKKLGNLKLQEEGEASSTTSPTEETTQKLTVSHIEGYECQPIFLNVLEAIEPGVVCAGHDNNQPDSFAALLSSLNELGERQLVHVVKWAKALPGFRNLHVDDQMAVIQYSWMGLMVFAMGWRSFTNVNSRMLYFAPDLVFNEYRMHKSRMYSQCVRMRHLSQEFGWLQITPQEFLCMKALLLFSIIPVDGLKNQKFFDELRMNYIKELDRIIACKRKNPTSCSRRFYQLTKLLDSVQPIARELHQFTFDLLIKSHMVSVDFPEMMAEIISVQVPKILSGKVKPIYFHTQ
In words: cryo-EM structure.

Test [2] addresses p300, purified recombinant (baculovirus) (human, UniProt Q09472 1-2414). The test is described as follows: co-IP.

p300, purified recombinant (baculovirus), sequence (Q09472 whole entry): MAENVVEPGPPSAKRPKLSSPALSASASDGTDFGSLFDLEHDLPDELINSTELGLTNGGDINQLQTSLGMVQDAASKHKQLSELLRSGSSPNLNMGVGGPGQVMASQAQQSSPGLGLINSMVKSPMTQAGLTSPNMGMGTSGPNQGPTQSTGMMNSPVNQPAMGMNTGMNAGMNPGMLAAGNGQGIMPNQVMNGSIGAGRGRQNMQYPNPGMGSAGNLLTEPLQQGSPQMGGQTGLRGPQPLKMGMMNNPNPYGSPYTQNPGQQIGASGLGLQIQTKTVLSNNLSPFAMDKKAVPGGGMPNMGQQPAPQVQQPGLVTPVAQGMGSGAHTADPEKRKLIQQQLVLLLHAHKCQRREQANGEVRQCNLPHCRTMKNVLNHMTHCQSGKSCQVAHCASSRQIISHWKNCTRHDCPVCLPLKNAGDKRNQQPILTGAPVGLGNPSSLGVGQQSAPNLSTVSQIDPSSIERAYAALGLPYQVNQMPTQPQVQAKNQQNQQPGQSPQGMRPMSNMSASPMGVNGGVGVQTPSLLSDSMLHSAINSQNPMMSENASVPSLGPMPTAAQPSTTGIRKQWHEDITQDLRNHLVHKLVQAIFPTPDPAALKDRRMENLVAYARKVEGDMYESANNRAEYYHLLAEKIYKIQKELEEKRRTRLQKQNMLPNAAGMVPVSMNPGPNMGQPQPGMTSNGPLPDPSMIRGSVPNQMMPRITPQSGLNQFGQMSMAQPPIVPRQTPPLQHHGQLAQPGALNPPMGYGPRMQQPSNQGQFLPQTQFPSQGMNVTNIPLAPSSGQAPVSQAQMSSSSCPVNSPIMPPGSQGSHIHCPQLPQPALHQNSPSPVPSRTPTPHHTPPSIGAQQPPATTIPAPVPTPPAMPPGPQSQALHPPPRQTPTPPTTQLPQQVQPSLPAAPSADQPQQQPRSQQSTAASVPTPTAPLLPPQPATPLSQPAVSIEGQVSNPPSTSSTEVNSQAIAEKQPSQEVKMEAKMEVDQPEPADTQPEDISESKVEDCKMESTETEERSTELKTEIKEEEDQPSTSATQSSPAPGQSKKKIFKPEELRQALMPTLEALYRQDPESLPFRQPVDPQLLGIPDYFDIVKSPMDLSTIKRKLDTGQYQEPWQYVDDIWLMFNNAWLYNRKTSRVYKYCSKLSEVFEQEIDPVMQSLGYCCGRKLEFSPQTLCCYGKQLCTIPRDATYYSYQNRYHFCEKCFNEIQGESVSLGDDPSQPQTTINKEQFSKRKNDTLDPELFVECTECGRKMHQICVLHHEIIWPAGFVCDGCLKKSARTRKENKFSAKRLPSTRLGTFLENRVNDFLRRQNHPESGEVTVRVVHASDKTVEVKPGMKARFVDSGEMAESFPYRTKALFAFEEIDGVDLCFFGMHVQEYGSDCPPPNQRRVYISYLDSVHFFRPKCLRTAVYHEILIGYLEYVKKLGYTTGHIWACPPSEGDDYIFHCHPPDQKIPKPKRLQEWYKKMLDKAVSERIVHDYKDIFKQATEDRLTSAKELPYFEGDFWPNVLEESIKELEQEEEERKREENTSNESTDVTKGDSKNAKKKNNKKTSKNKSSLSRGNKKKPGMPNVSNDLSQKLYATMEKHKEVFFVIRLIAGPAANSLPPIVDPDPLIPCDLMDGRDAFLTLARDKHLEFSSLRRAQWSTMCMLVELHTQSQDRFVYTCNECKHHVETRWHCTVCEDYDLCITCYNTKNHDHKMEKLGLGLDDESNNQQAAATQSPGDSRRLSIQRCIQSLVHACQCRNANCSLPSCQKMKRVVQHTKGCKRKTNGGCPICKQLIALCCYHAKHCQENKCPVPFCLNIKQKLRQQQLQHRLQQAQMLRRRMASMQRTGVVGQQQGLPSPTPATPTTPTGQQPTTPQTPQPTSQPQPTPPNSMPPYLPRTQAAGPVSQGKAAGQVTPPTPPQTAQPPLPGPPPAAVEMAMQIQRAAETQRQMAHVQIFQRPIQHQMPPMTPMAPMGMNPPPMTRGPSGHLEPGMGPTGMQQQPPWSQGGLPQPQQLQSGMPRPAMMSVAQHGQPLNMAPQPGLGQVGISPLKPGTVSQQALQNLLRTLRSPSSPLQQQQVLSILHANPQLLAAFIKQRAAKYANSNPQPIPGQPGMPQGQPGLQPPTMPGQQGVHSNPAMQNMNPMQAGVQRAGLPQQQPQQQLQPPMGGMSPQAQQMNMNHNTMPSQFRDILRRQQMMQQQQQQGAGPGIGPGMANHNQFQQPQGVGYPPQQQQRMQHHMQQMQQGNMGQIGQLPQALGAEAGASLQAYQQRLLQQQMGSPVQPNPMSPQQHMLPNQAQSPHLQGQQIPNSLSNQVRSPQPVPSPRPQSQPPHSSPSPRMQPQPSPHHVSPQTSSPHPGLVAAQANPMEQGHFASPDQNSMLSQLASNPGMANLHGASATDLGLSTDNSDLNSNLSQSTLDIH

B1: SRC-3, purified recombinant (baculovirus) (natural protein)
chain: not shown
In general, stoichiometry N refers to a count of units in the complex or per binding partner. Consider B1, for which the “stoichiometry N” value in test [1] came to 1.

B2: Flag-tagged AR (1-669aa), deletion mutant lacking the LBD (domain or fragment, human, UniProt P10275 1-669, looked up)
chain: MEVQLGLGRVYPRPPSKTYRGAFQNLFQSVREVIQNPGPRHPEAASAAPPGASLLLLQQQQQQQQQQQQQQQQQQQQQQQETSPRQQQQQQGEDGSPQAHRRGPTGYLVLDEEQQPSQPQSALECHPERGCVPEPGAAVAASKGLPQQLPAPPDEDDSAAPSTLSLLGPTFPGLSSCSADLKDILSEASTMQLLQQQQQEAVSEGSSSGRAREASGAPTSSKDNYLGGTSTISDNAKELCKAVSVSMGLGVEALEHLSPGEQLRGDCMYAPLLGVPPAVRPTPCAPLAECKGSLLDDSAGKSTEDTAEYSPFKGGYTKGLEGESLGCSGSAAAGSSGTLELPSTLSLYKSGALDEAAAYQSRDYYNFPLALAGPPPPPPPPHPHARIKLENPLDYGSAWAAAAAQCRYGDLASLHGAGAAGPGSGSPSAAASSSWHTLFTAEEGQLYGPCGGGGGGGGGGGGGGGGGGGGGGGEAGAVAPYGYTRPPQGLAGQESDFTAPDVWYPGGMVSRVPYPSPTCVKSEMGPWMDSYSGPYGDMRLETARDHVLPIDYYFPPQKTCLICGDEASGCHYGALTCGSCKVFFKRAAEGKQKYLCASRNDCTIDKFRRKNCPSCRLRKCYEAGMTLGARKLKKLGNLKLQEEGEASSTTSPTEETTQKLTVSHIEGYE
On to B2, for which the binding result in test [2] is “binds”.
